{
  "source": "paper PMC3045599",
  "target": "NrdA-a/NrdA-b heterodimer of phage Aeh1, wild type (phage Aeh1)",
  "experiment": "GEMMA",
  "data": [
    {"substance": "NrdA-a/NrdA-b heterodimer of phage Aeh1, wild type (complex)", "values": [
      {"measurement": "stoichiometry N", "value": 2}
    ]}
  ]
}
